B1: Barstar, P11540 (parent)
chain: MKKAVINGEQIRSISDLHQTLKKELALPEYYGENLDALWDCLTGWVEYPLVLEWRQFEQSKQLTENGAESVLQVFREAKAEGCDITIILS

Variants of: B1
Conditions: Bacillus amyloliquefaciens; pH 7.4; 25 °C; Thermal; DSC; Sodium phosphate 50 mM; reversible: yes; structure 1BTA; whole UniProt chain shown

Row | Variant | heat capacity change of unfolding [kcal/mol/K] | unfolding free energy [kcal/mol]
1 | MKKAVINGEQIRSISDLHQTLKKELALPEYYGENLDALWDCLTGWVEYPLVLEWRQFEQSKQLTENGAESVLQVFREAKAEGADITIILS [C83A] | 0.86 | 6.1

Same assay, conditions: Bacillus amyloliquefaciens; pH 7.4; Thermal; DSC; Sodium phosphate 50 mM; reversible: yes; structure 1BTA; whole UniProt chain shown

Row | Variant | Tm [°C] | change of melting temperature, mutant - wild type (higher = more stable) [°C] | heat capacity change of unfolding [kcal/mol/K] | unfolding enthalpy (calorimetric) [kcal/mol]
2 | MKKAVINGEQIRSISDLHQTLKKELALPEYYGENLDALWDCLTGWVEYPLVLEWRQFEQSKQLTENGAESVLQVFREAKAEGADITIILS [C83A] | 71.4 | -1.4 | 0.86 | 66
